PMC5807507, “Crystal structures of a bacterial dipeptidyl peptidase IV reveal a novel substrate recognition mechanism distinct from that of mammalian orthologues” (Scientific Reports, 2018)

Key:
[1] = substrate: Cc1cc(=O)oc2cc(NC(=O)[C@@H]3CCCN3C(=O)CN)ccc12; test: fluorescence of released MCA; Michaelis-Menten nonlinear fit; assay type: biochemical, Homo sapiens; details: […] substrate, […] sodium phosphate pH […] EDTA, […] Tween […] K, […] min
Source text: fluorescence of released MCA; Michaelis-Menten nonlinear fit on Human DPP IV

[2] = substrate: Cc1cc(=O)oc2cc(NC(=O)[C@@H]3CCCN3C(=O)CN)ccc12; test: as above; assay type: biochemical, Pseudoxanthomonas mexicana; details: […] substrate, […] sodium phosphate pH […] EDTA, […] Tween […] K, […] min
Source text: fluorescence of released MCA; Michaelis-Menten nonlinear fit on PmDAP IV

B1: Human DPP IV (Homo sapiens) (protein)
chain: SRKTYTLTDYLKNTYRLKLYSLRWISDHEYLYKQENNILVFNAEYGNSSVFLENSTFDEFGHSINDYSISPDGQFILLEYNYVKQWRHSYTASYDIYDLNKRQLITEERIPNNTQWVTWSPVGHKLAYVWNNDIYVKIEPNLPSYRITWTGKEDIIYNGITDWVYEEEVFSAYSALWWSPNGTFLAYAQFNDTEVPLIEYSFYSDESLQYPKTVRVPYPKAGAVNPTVKFFVVNTDSLSSVTNATSIQITAPASMLIGDHYLCDVTWATQERISLQWLRRIQNYSVMDICDYDESSGRWNCLVARQHIEMSTTGWVGRFRPSEPHFTLDGNSFYKIISNEEGYRHICYFQIDKKDCTFITKGTWEVIGIEALTSDYLYYISNEYKGMPGGRNLYKIQLSDYTKVTCLSCELNPERCQYYSVSFSKEAKYYQLRCSGPGLPLYTLHSSVNDKGLRVLEDNSALDKMLQNVQMPSKKLDFIILNETKFWYQMILPPHFDKSKKYPLLLDVYAGPCSQKADTVFRLNWATYLASTENIIVASFDGRGSGYQGDKIMHAINRRLGTFEVEDQIEAARQFSKMGFVDNKRIAIWGWSYGGYVTSMVLGSGSGVFKCGIAVAPVSRWEYYDSVYTERYMGLPTPEDNLDHYRNSTVMSRAENFKQVEYLLIHGTADDNVHFQQSAQISKALVDVGVDFQAMWYTDEDHGIASSTAHQHIYTHMSHFIKQCFSLP
notes: homodimer
Km [1]: 37.1 ± 1.6 µM | kcat [1]: 35.3 ± 1 s⁻¹ | kcat/Km [1]: 952000 ± 13000 M⁻¹ s⁻¹

B2: PmDAP IV (Pseudoxanthomonas mexicana) (protein)
chain: AEKLTLEAITGSAPLSGPTLTKPQIAPDGSRVTFLRGKDRDRNRLDLWEYDIASGQTRLLVDSSVVLPGEEVLSDEEKARRERQRIAALSGIVDYQWSPDGKALLFPLGGELYFYDLTKSGRDAVRKLTNGGGFATDPKISPKGGFVSFIRDRNLWAIDLASGKEVQLTRDGSDTIGNGVAEFVADEEMDRHTGYWWAPDDAAIAFARIDETPVPVQKRYEVYPDRTEVVEQRYPAAGDHNVRVQLGVIAPKTGARPRWIDLGKDPDIYLARVDWRDPQRLTFQRQSRDQKKIELIETTLTNGTQRTLVTETSTTWVPLHNDLRFLKDGRFLWSSERSGFEHLYVASEDGSTLTALTQGEWVVDSLLAIDEAAGLAYVSGTRDGATEAHVYAVPLSGGEPRRLTQAPGMHAATFARNASVFVDSWSSDTTLPQIELFKADGTKLATLLVNDVSDATHPYAKYRAAHQPTAYGTLTAADGTTPLHYSLIKPAGFDPKKQYPVVVFVYGGPAAQTVTRAWPGRSDSFFNQYLAQQGYVVFTLDNRGTPRRGAAFGGALYGKQGTVEVDDQLRGIEWLKSQAFVDPARIGVYGWSNGGYMTLMLLAKHDEAYACGVAGAPVTDWALYDTHYTERYMDLPKANEAGYREASVFTHVDGIGAGKLLLIHGMADDNVLFTNSTKLMSELQKRGTPFELMTYPGAKHGLRGSDLLHRYRLTEDFFARCLKP
notes: M12I lies in the removed signal; no tag; 723 residues, 82-kDa; homodimer; crystal model Ala22-Pro745
Km [2]: 19.4 ± 0.8 µM | kcat [2]: 19.2 ± 0.4 s⁻¹ | kcat/Km [2]: 989000 ± 35000 M⁻¹ s⁻¹
